Laboratory results published in paper PMC3094545 (Structure (London, England : 1993), 2011).

Biological target: the molecule itself
Assay: crystal structure

B1: cytoplasmic domain of ZntB from Salmonella enterica serovar Typhimurium (domain or fragment)
chain: MEAIKGSDVNVPDAVFAWLLDGRGGVKPLEDNDVIDSQHPCWLHLNYTHPDSARWLASTPLLPNNVRDALAGESSRPRVSRMGEGTLITLRCINGSTDERPDQLVAMRLYMDERFIVSTRQRKVLALDDVVSDLQEGTGPVDCGGWLVDVCDALTDHASEFIEELHDKIIDLEDNLLDQQIPPRGFLALLRKQLIVMRRYMAPQRDVYARLASERLPWMSDDHRRRMQDIADRLGRGLDEIDACIARTGIMADEIAQVMQES
stoichiometry N: 5
